In this assay the target is T1, B7330N-myc (myc-tagged B7330N expressed from pcDNA3.1-B7330N-myc in COS-7 cells) (human, UniProt Q8NCL4 1-622).
T1 construct: Expressed by transfection in COS-7 cells and tested in cell lysates; also called GALNT6; not shown: myc-his tag from the pcDNA3.1-myc-his vector (Invitrogen)
T1 sequence: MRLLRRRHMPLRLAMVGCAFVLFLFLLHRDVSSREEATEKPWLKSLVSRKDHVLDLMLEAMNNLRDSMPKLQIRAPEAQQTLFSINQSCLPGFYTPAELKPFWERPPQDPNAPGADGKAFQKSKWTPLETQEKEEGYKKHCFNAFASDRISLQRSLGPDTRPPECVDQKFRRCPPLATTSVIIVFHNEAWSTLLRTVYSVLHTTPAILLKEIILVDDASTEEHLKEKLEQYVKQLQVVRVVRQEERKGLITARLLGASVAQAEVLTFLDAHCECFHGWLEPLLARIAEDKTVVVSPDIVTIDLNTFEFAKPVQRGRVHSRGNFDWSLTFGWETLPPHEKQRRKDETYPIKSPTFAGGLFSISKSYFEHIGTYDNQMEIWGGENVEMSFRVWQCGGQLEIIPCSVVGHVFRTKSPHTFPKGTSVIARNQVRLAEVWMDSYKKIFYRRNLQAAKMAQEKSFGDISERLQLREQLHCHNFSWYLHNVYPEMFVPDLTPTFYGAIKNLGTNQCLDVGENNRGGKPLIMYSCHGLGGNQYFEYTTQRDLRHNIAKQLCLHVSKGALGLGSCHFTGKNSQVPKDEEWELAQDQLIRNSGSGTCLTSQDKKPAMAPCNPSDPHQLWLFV
Nature of the assay: co-immunoprecipitation from co-transfected COS-7 cells, anti-myc pull-down. From the text: To investigate that hypothesis, we designed two kinds of tagged-B7330N constructs to examine homo-oligomerization. pCAGGS-B7330N-HA and pcDNA3.1-B7330N-myc were co-transfected into COS-7 cells and co-immunoprecipitated using anti-HA or anti-myc antibody, respectively.

This note sets out measurements from US20090202543A1 (ONCOTHERAPY SCIENCE, published 2009).

B1: B7330N-HA (HA-tagged B7330N expressed from pCAGGS-B7330N-HA in COS-7 cells) (enzyme)
chain: T1 sequence
modifications: N-glycosylated at Asn-476
notes: Expressed by transfection in COS-7 cells and tested in cell lysates; also called GALNT6; UDP-N-acetyl-alpha-D-galactosamine: polypeptide N-acetylgalactosaminyltransferase 6; not shown: C-terminal HA tag from the pCAGGS-HA vector
With B1, the binding result is given as “binds”.
